From US8735341

Tested on: TAT-mMDH-eGFP fusion protein

## mitochondrial processing peptidases in the matrix contents of rat liver mitochondria
  cleavage of the mMDH signal sequence after incubation with mitochondrial matrix contents (gel): The matrix signal peptidase progressively cleaved the mMDH signal sequence at two sites yielding two cleavage products of an estimated molecular mass of 32 kDa and 28.9 kDa
